Measured values as given in US20180036395A1, “DOSAGE AND ADMINISTRATION OF MONOSPECIFIC AND BISPECIFIC ANTI-IGR-1R AND ANTI-ERBB3 ANTIBODIES” (Merrimack Pharmaceuticals, Inc., priority 2012, published 2018).

Legend:
[1] = test system: hepatocellular carcinoma (HCC); assay: Treatment of patients with hepatocellular carcinoma; assay type: in vivo, human
Protocol: (§1) P4-G1-M1.3 is formulated in 20 mM histidine, 100 mM arginine-HCl, 3% sucrose, at pH 5.5 supplemented with 0.002-0.02% of Tween® 80 at concentration range 5-15 mg/mL. P4-G1-M1.3 is administered to patients at 6 mg/kg, 12 mg/kg, 20 mg/kg, 30 mg/kg, 40 mg/kg, 50 mg/kg or 60 mg/kg q7d, ql4d, q21d, or q28d with a loading dose of 12 mg/kg, 20 mg/kg, 40 mg/kg, 40 mg/kg or 60 mg/kg Everolimus is administered to patients at 2.5 mg, 5 mg, or 10 mg orally once a day or once every other day.
Patients with hepatocellular carcinoma (HCC) are treated with P4-G1-M1.3 monotherapy. Patients are dosed with P4-G1-M1.3 as described in Example 1 (second line in patients refractory to sorafenib). […] Preclinical data to support this example may be obtained using HepG2 cells in vitro and in vivo.
Patients with hepatocellular carcinoma (HCC) are treated with a combination of an effective amount of sorafenib and an effective amount of P4-G1-M1.3. Patients are dosed with P4-G1-M1.3 as described in Example 1. Patients are dosed with sorafenib at 400 mg daily. […] Preclinical data to support this example may be obtained using HepG2 cells in vitro and in vivo.

melanoma = assay: Treatment of patients with melanoma; assay type: in vivo, human; details: vemurafenib or dabrafenib + P4-G1-M1.3
Protocol: as §1
Patients with melanoma are treated by administration of either monotherapy with an effective amount of vemurafenib (Zelboraf®) or an effective amount of P4-G1-M1.3, or with combination therapy comprising or consisting of administration of both the effective amount of vemurafenib or dabrafenib and the effective amount of P4-G1-M1.3. P4-G1-M1.3 is formulated and administered as described above in Example 1. Vemurafenib is given orally at 960 mg 1-2 times daily. Dabrafenib is administered as administered in dabrafenib phase III clinical trials.

BxPC-3 cells = assay: In vitro signaling ELISA, KRAS wild-type cells; assay type: cell-based, human; details: combination 500 nM P4-G1-M1.3 + 250 nM GSK1120212, 24 hours, 10% serum, FIG. 3
Protocol: (§2) Cells were treated with 500 nM P4-G1-M1.3, 250 nM GSK1120212 or the combination for 24 hours in 10% serum and ELISA assays were performed. The data was normalized to 10% serum without treatment.
(§3) The preclinical models to support this example are performed using BxPC-3 (KRAS wild-type) and KP4 (KRAS mutant) cell lines.

KP4 cells = assay: In vitro signaling ELISA, KRAS mutant cells; assay type: cell-based, human; details: combination 500 nM P4-G1-M1.3 + 250 nM GSK1120212, 24 hours, 10% serum, FIG. 3
Protocol: as §2, §3

[2] = test system: HepG2 hepatocellular carcinoma cells; assay: HepG2 quantitative western blotting; assay type: cell-based, human; details: 2 hours or 6 hours, compared to either alone, FIG. 5
Protocol: Cells were treated with 500 nM P4-G1-M1.3, […] sorafenib or the combination for either 2 hours or 6 hours and quantitative western blotting was performed.
Buffer containing β-Mercaptoethanol (β-ME) is added and lysates are boiled for 5 minutes at 95° C. Approximately 40 μg of protein and two ladders (Invitrogen) are run on each well of an 18-well gel (BioRad). Gels are run at 150 volts constant for approximately 90 minutes and transferred to nitrocellulose membranes using the 8 minute transfer program of the iBlot® (Invitrogen) transfer system. Membranes are blocked in Odyssey® Blocking Buffer (Licor® Biosciences) for 1 hour at room temperature, and then incubated with primary antibodies overnight at 4° C. in 5% BSA in TBS-T. All antibodies are purchased from Cell Signaling and used at the recommended dilution. The following day membranes are washed 3×5 minutes each with TBS-T and then incubated with anti-Rabbit IgG—DyLight® 800 (Cell Signaling) or anti-Rabbit IRDye® 800 (Licor® Biosciences) at 1:10,000-15,000 in 5% milk in TBS-T for 1 hour at room temperature. Membranes were then washed 3×5 minutes each with TBS-T and scanned using the Licor® Odyssey® system (Licor® Biosciences). Intensities are quantified using Image Studio 2.0 and normalized to β-Actin levels. […]

[3] = test system: Ewing's sarcoma or metastatic pancreatic cancer; assay: Treatment of patients with Ewing's sarcoma or metastatic pancreatic cancer; assay type: in vivo, human; details: irinotecan or nanoliposomal irinotecan + P4-G1-M1.3
Protocol: as §1
Patients with Ewing's sarcoma or metastatic pancreatic cancer are treated with a combination of an effective amount of irinotecan (Camptosar®) or nanoliposomal irinotecan and an effective amount of P4-G1-M1.3. P4-G1-M1.3 is formulated and administered as described above (e.g., Example 1). Nanoliposomal irinotecan is given i.v. at 80 mg/m^2 or 120 mg/m^2 q3w. Camptosar® is administered per manufacturer's directions.

B1: P4-G1-M1.3: anti-IGF-1R+anti-ErbB3 polyvalent bispecific antibody, IgG1-(scFv)2 (SEQ ID NO:148 and SEQ ID NO:149) (protein)
chain 1: EVQLLQSGGGLVQPGGSLRLSCAASGFLFSSYPMHWVRQAPGKGLEWVGSISPSGGATPYADSVKGRFTISRDNSKNTLYLQMNSLRPEDTAVYYCAKDFYNILTGNAFDKWGQGTSVTVSSASTGGGGSGGGGSGGGGSGGGGSDIQLTQSPSSLSASLGDRVTITCRASQGISSYLAWYQQKPGKAPKLLIYAGSTPQSGVPSRFSGSGSGTEFTLTISSLQPEDSGTYYCQQYWTWPLTFGGGTKVEIKRT
chain 2: EVQLVESGGGLVQPGRSLRLSCAASGFTFDDYAMHWVRQAPGKGLEWVSGISWNSGSTGYADSVKGRFTISRDNAKNSLYLQMNSLRAEDTALYYCARDLGYNQWLEGFDYWGQGTLVTVSSASTGGGGSGGGGSGGGGSGGGGSSSELTQDPAVSVALGQTVRITCQGDSLRSYYASWYQQKPGQAPVLVIYGKNNRPSGIPDRFSGSSSGNTASLTITGAQAEDEADYYCMSRDHPGNQWVFGGGTKVTVLG
modifications: Synthetic polypeptide:Anti-IGF-1R scFvs M76; Synthetic polypeptide:Anti-ErbB3 scFvs P6L
In the case of B1, the “HCC symptoms (e.g., time to progression or progression-free survival)” value ([1]; P4-G1-M1.3 monotherapy, second line in patients refractory to sorafenib, vs untreated historical controls or best supportive care) is reported as “statistically significant improvement in HCC symptoms”, the treatment outcome ([1]; patients with HCC, sorafenib 400 mg daily + P4-G1-M1.3) is reported as “combinatorially enhanced outcome” and the treatment outcome (melanoma) is reported as “combinatorially enhanced outcome”. For the same molecule, the “signaling (pAkt Ser473, pERK)” value (BxPC-3 cells) was “inhibition of signaling”, the “signaling (pAkt Ser473, pERK)” value (KP4 cells) was “inhibition of signaling” and the “downstream signaling (pErbB3, pAkt Ser473, pERK1/2)” value ([2]; combination of 500 nM P4-G1-M1.3 and 504 sorafenib) was “inhibits downstream signaling”. The ErbB3 level ([2]; combination of 500 nM P4-G1-M1.3 and sorafenib) was “downregulation of ErbB3” and the treatment outcome [3] was “combinatorially enhanced outcome”.
